Measurements reported in patent US7807396.

T1: human β-endorphin1-31, P01189
T1 chain: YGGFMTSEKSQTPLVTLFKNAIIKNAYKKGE

B1: recombinant rat insulysin with an N-terminal His6 affinity tag, expressed in baculovirus-infected Sf9 cells (protein)
chain: MNNPAIQRIEDHIVKSPEDKREYRGLELANGIKVLLISDPTTDKSSAALDVHIGSLSDPPNIPGLSHFCEHMLFLGTKKYPKENEYSQFLSEHAGSSNAFTSGEHTNYYFDVSHEHLEGALDRFAQFFLCPLFDASCKDREVNAVDSEHEKNVMNDAWRLFQLEKATGNPKHPFSKFGTGNKYTLETRPNQEGIDVREELLKFHSTYYSSNLMAICVLGRESLDDLTNLVVKLFSEVENKNVPLPEFPEHPFQEEHLKQLYKIVPIKDIRNLYVTFPIPDLQQYYKSNPGHYLGHLIGHEGPGSLLSELKSKGWVNTLVGGQKEGARGFMFFIINVDLTEEGLLHVEDIILHMFQYIQKLRAEGPQEWVFQECKDLNAVAFRFKDKERPRGYTSKIAGKLHYYPLNGVLTAEYLLEEFRPDLIDMVLDKLRPENVRVAIVSKSFEGKTDRTEQWYGTQYKQEAIPEDVIQKWQNADLNGKFKLPTKNEFIPTNFEILALEKDATPYPALIKDTAMSKLWFKQDDKFFLPKACLNFEFFSPFAYVDPLHCNMAYLYLELLKDSLNEYAYAAELAGLSYDLQNTIYGMYLSVKGYNDKQPILLKKITEKMATFEIDKKRFEIIKEAYMRSLNNFRAEQPHQHAMYYLRLLMTEVAWTKDELKEALDDVTLPRLKAFIPQLLSRLHIEALLHGNITKQAALGVMQMVEDTLIEHAHTKPLLPSQLVRYREVQLPDRGWFVYQRRNEVHNNCGIEIYYQTDMQSTSENMFLELFCQIISEPCFNTLRTKEQLGYIVFSGPRRANGIQGLRFIIQSEKPPHYLESRVEAFLITMEKAIEDMTEEAFQKHIQALAIRRLDKPKKLSAECAKYWGEIISQQYNYDRDNIEVAYLKTLSKDDIIKFYKEMLAVDAPRRHKVSVHVLAREMDSCPVVGEFPSQNDINLSEAPPLPQPEVIHNMTEFKRGLPLFPLVKPHINFMAAKL
B2: human neprilysin expressed from a lentiviral construct in primary neuronal cultures of neprilysin deficient mice (protein)
chain: GKSESQMDITDINTPKPKKKQRWTPLEISLSVLVLLLTIIAVTMIALYATYDDGICKSSDCIKSAARLIQNMDATTEPCTDFFKYACGGWLKRNVIPETSSRYGNFDILRDELEVVLKDVLQEPKTEDIVAVQKAKALYRSCINESAIDSRGGEPLLKLLPDIYGWPVATENWEQKYGASWTAEKAIAQLNSKYGKKVLINLFVGTDDKNSVNHVIHIDQPRLGLPSRDYYECTGIYKEACTAYVDFMISVARLIRQEERLPIDENQLALEMNKVMELEKEIANATAKPEDRNDPMLLYNKMTLAQIQNNFSLEINGKPFSWLNFTNEIMSTVNISITNEEDVVVYAPEYLTKLKPILTKYSARDLQNLMSWRFIMDLVSSLSRTYKESRNAFRKALYGTTSETATWRRCANYVNGNMENAVGRLYVEAAFAGESKHVVEDLIAQIREVFIQTLDDLTWMDAETKKRAEEKALAIKERIGYPDDIVSNDNKLNNEYLELNYKEDEYFENIIQNLKFSQSKQLKKLREKVDKDEWISGAAVVNAFYSSGRNQIVFPAGILQPPFFSAQQSNSLNYGGIGMVIGHEITHGFDDNGRNFNKDGDLVDWWTQQSASNFKEQSQCMVYQYGNFSWDLAGGQHLNGINTLGENIADNGGLGQAYRAYQNYIKKNGEEKLLPGLDLNHKQLFFLNFAQVWCGTYRPEYAVNSIKTDVHSPGNFRIIGTLQNSAEFSEAFHCRKNSYMNPEKKCRVW

Legend:
[1] = target: aggregated amyloid β1-40 pre-coated on 96 well plates (synthetic amyloid plaque, synthaloid)
[2] = target: T1, human β-endorphin1-31, P01189
[3] = target: amyloid beta peptide Aβ1-42
[4] = target: amyloid beta peptide Aβ1-40

Row | Protein | release of radioactivity from 125I-Aβ1-40 first deposited onto synthetic amyloid [1] | specific activity of the recombinant enzyme (disappearance of β-endorphin by HPLC) [2] [µmols/min/mg] | sparing of neurotoxic effects on primary rat cortical neurons (25 µM Aβ1-42, 48 hrs) [3] | prevention of deposition of radiolabeled Aβ1-40 onto synthaloid, 60 minutes preincubation with insulysin (FIG. 9B) [4] | prevention of deposition of radiolabeled Aβ1-40 onto synthaloid, insulysin added at zero time (FIG. 9A) [4] | rate of cleavage of 25 µM Aβ1-40 [4] [µmols/min/mg enzyme] | sparing of neurotoxic effects on primary rat cortical neurons (30 µM Aβ1-40, 48 hrs) [4] | 125I-Aβ1-40 peptide degradation in primary neuronal cultures [4]
1 | B1 | After a 24 hr incubation with 5 µg of insulysin no radioactivity was released | 2.6 | 500 ng of insulysin was effective in sparing the neurotoxic effects of Aβ1-42 | 50 ng insulysin is able to prevent the deposition of radiolabeled Aβ1-40 onto the synthetic amyloid | 50 ng of insulysin is able to prevent the deposition of radiolabeled Aβ1-40 | 1.2 | as little as 50 ng of insulysin was effective in sparing the neurotoxic effects of Aβ1-40 | 
2 | B2 |  |  |  |  |  |  |  | neprilysin expressing neuronal cell cultures virtually destroyed all Aβ peptide in comparison to the controls
